Reference: patent US8030043B2, “β-galactoside-α2,3-sialyltransferase, a gene encoding thereof, and a method for producing thereof” (Japan Tobacco Inc., priority 2005, dated 2011)

B1: ISH224-N1C0 first clone: JT-ISH-224 sialyltransferase lacking signal peptide region, nucleotides 73 to 1230 of SEQ ID NO: 28 (protein, listed as Photobacterium sp.)
chain: MLVFCKKMFFSVFISLMILGGCNSDSNHNNSDGNITKNKTIEVYVDRATLPTIQQMTQIINENSNNKKLISWSRYPINDEELLESINGSFFKNNSELIKSLDSMILTNDIKKVIINGNTLWAADVVNIIKSIEAFGKKTEIELNFYDDGSAEYVRLYDFSKLPESEQEYKISLSKDNILSSINGTQPFENVVENIYGFSQLYPTTYHMLRADIFETNLPLRSLKGVLSNNIKQMKWDYFKTFNSQQKDKFYNFTGFNPDEIMEQYKASPNKNFIFVGTNSGTATAEQQIDILTEAKNPNSPIITKSIQGFDLFFKGHPSATYNKQIIDAHNMIEIYNKIPFEALIMTDALPDAVGGMGSSVFFSLPNTVENKFIFYKSDTDIENNALIQVMIELNIVNRNDVKLISDLQ
modifications: CDS (1)..(1230) /gene=“224-23ST” /product=“Beta-galactoside-alpha-2,3-sialyltransferase”
B2: FAJ-N1C0 first clone: JT-FAJ-16 sialyltransferase lacking signal peptide region, nucleotides 67 to 1209 of SEQ ID NO: 30 (protein, listed as Vibrio sp.)
chain: MKNIITKRMLIILSSLFTIIGCNNDNSTTTNNNAIEIYVDRATLPTIQQMTKIVSQKTSNKKLISWSRYPITDKSLLKKINAEFFKEQFELTESLKNIILSENIDNLIIHGNTLWSIDVVDIIKEVNLLGKNIPIELHFYDDGSAEYVRIYEFSKLPESEQKYKTSLSKNNIKFSIDGTDSFKNTIENIYGFSQLYPTTYHMLRADIFDTTLKINPLRELLSNNIKQMKWDYFKDFNYKQKDIFYSLTNFNPKEIQEDFNKNSNKNFIFIGSNSATATAEEQINIISEAKKENSSIITNSISDYDLFFKGHPSATFNEQIINAHDMIEINNKIPFEALIMTGILPDAVGGMGSSVFFSIPKEVKNKFVFYKSGTDIENNSLIQVMLKLNLINRDNIKLISDI
modifications: CDS (1)..(1209) /gene=“FAJ16-23ST” /product=“Beta-galactoside- alpha 2,3-sialyltransferase”
B3: ISH467-N2C0 third clone: JT-ISH-467 sialyltransferase lacking signal peptide region, nucleotides 73 to 1230 of SEQ ID NO: 1, no mutation (protein, listed as Photobacterium phosphoreum)
chain: MFVFCKKIFFLIFISLMILGGCNSDSKHNNSDGNITKNKTIEVYVDRATLPTIQQMTQIINENSNNKKLISWSRYPINDETLLESINGSFFKNRPELIKSLDSMILTNEIKKVIINGNTLWAVDVVNIIKSIEALGKKTEIELNFYDDGSAEYVRLYDFSRLPESEQEYKISLSKDNIQSSINGTQPFDNSIENIYGFSQLYPTTYHMLRADIFETNLPLTSLKRVISNNIKQMKWDYFTTFNSQQKNKFYNFTGFNPEKIKEQYKASPHENFIFIGTNSGTATAEQQIDILTEAKKPDSPIITNSIQGLDLFFKGHPSATYNQQIIDAHNMIEIYNKIPFEALIMTDALPDAVGGMGSSVFFSLPNTVENKFIFYKSDTDIENNALIQVMIELNIVNRNDVKLISDLQ
modifications: CDS (1)..(1230) /gene=“467-23ST” /product=“Beta-galactoside- alpha 2,3-sialyltransferase”

Tests used:
Format in all cases: biochemical
asialofetuin = test: Sialic acid transfer to glycoprotein (asialofetuin), gel filtration and scintillation counting; conditions: asialofetuin acceptor; CMP-14C-NeuAc 22.8 nmol (about 19,000 cpm); enzyme 10 mU; 25° C., 2 hours
From the text: Cell homogenates prepared from E. coli cells introduced with the third clone of ISH467-N2C0, the first clone of ISH224-N1C0 and the first clone of FAJ-N1C0 were each purified by ion exchange chromatography and hydroxyapatite chromatography to give an electrophoretically single band. The thus purified β-galactoside-α2,3-sialyltransferases were used in the following experiment in order to examine the presence or absence of sialyltransferase activity toward glycoproteins.
As a glycosyl acceptor substrate, asialofetuin was used. Asialofetuin (2 mg) was dissolved in 1 ml of 20 mM Bis-tris buffer (pH 6.0) and used as a glycosyl acceptor substrate solution. As a glycosyl donor substrate, CMP-^14C-NeuAc-containing CMP-NeuAc was used. The glycosyl acceptor substrate solution (40 μl), the glycosyl donor substrate (5 μl, 22.8 nmol (about 19,000 cpm)) and any of the enzyme solutions (5 μl, 10 mU each) were mixed and incubated at 25° C. for 2 hours to cause sialic acid transfer reaction. After completion of the reaction, the reaction solution was gel-filtered by being applied to a Sephadex G-50 Superfine (0.8×18.0 cm) equilibrated with 0.1 M sodium chloride. A glycoprotein-containing eluate fraction (2-4 ml fraction) from gel filtration was collected and measured for its radioactivity using a liquid scintillation counter to quantify sialic acid transferred to the glycosyl acceptor substrate.

[1] = Optimum temperature for enzyme activity; conditions: 5° C. to 45° C. at 5° C. intervals, at the optimum pH of each enzyme
Description: Purified enzymes were prepared to examine the optimum pH and temperature for β-galactoside-α2,3-sialyltransferase produced by the strain JT-ISH-467 as well as recombinant β-galactoside-α2,3-sialyltransferases produced by the third clone of ISH467-N2C0, the first clone of ISH224-N1C0 and the first clone of FAJ-N1C0.
The enzyme activity was measured at an interval of 5° C. starting from 5° C. up to 45° C. and at pH 5.0 for β-galactoside-α2,3-sialyltransferase produced by the strain JT-ISH-467, in cacodylate buffer (pH 5.5) for the third clone of ISH467-N2C0, in cacodylate buffer (pH 5.0) for the first clone of ISH224-N1C0, and in cacodylate buffer (pH 5.5) for the first clone of FAJ-N1C0.
As a result, as shown, in FIGS. 4-1 and 4-2, the enzyme activity was maximum at 25° C. for β-galactoside-α2,3-sialyltransferase produced by the strain JT-ISH-467, at 25° C. for the third clone of ISH467-N2C0, at 30° C. for the first clone of ISH224-N1C0, and at 20° C. for the first clone of FAJ-N1C0. […] It should be noted that enzyme activity at each temperature was expressed as relative activity, assuming at that the enzyme activity at a temperature where it reached a maximum was set to 100.

[2] = Sialyltransferase activity in E. coli homogenate (crude enzyme solution), transfer of 14C-NeuAc from CMP-NeuAc to lactose; conditions: lactose acceptor; for Radioactivity (cpm) Average: average of duplicate; for Sialyltransferase activity in crude enzyme solution (in words): CMP-14C-NeuAc donor
Description: Sialyltransferase activity was measured as described in J. Biochem., 120, pp. 104-110 (1996) (which is hereby incorporated by reference in its entirety). More specifically, the enzymatic reaction was accomplished by using CMP-NeuAc (70 nmol, containing 25000 cpm CMP-NeuAc in which NeuAc was labeled with ^14C, 356 cpm/nmol; NeuAc represents N-acetylneuraminic acid) as a glycosyl donor substrate, lactose (1.25 μmol) as a glycosyl acceptor substrate, NaCl added to give a concentration of 0.5 M, and the enzyme-containing reaction solution (30 μl) prepared as described above. The enzymatic reaction was carried out at 25° C. for 10 to 30 minutes. After completion of the reaction, 1.97 ml of 5 mM phosphate buffer (pH 6.8) was added to the reaction solution, which was then applied to a Dowex 1×8 (PO4^3− form, 0.2×2 cm, BIO-RAD) column. The radioactivity was measured for the reaction product, i.e., sialyllactose contained in the eluate (0 to 2 ml) from this column to calculate the enzyme activity.
An induction experiment of protein expression was performed on the two 467-N0C0 clones and the three 467-N2C0 clones obtained in (4) above. A single colony of E. coli TB1 having the expression vector pTrc99A carrying each clone was inoculated into LB medium (5 ml) containing an antibiotic, ampicillin (final concentration 100 μg/mL), and pre-cultured at 30° C. to about A600=0.5, followed by addition of IPTG (isopropyl-β-D(−)-thiogalactopyranoside, Wako Pure Chemical Industries, Ltd. Japan) at a final concentration of 1 mM. After culturing with shaking at 30° C. for an additional 4 hours, the cells in 2 ml culture solution were collected by centrifugation. These cells were suspended in 200 μl of 20 mM BisTris buffer (pH 7.0) containing 0.336% Triton X-100 and 0.5 M sodium chloride, and ultrasonically homogenized under ice cooling. The resulting homogenate was defined as a crude enzyme solution and provided for activity measurement. The reaction was carried out in duplicate, and the reaction composition was the same as shown in Example 1, except that the reaction time was set to 15 hours.
In the same manner as shown in Example 5(5), an induction experiment of protein expression was performed on 2 clones, i.e., the first clone of ISH224-N0C0 and the first clone of ISH224-N1C0 to measure their enzyme activity.
In the same manner as shown in Example 5(5), an induction experiment of protein expression was performed on 3 clones, i.e., the first clone of FAJ-N0C0 as well as the first and second clones of FAJ-N1C0 to measure their enzyme activity.

[3] = JT-ISH-224 gene clones, as Example 5(5)
[4] = JT-FAJ-16 gene clones, as Example 5(5)
[5] = JT-ISH-467 gene clones, 25° C., reaction time 15 hours

Molecule | Radioactivity (cpm) (asialofetuin) | Temperature at which the enzyme activity was maximum (optimum temperature) [1] [°C] | Radioactivity (cpm) Round 1 [2, 3] [cpm] | Radioactivity (cpm) Round 2 [2, 3] [cpm] | Radioactivity (cpm) Average [2, 3] [cpm] | Sialyltransferase activity in crude enzyme solution (in words) [2] | Radioactivity (cpm) Round 1 [2, 4] [cpm] | Radioactivity (cpm) Round 2 [2, 4] [cpm] | Radioactivity (cpm) Average [2, 4] [cpm] | Radioactivity (cpm) Round 1 [2, 5] [cpm] | Radioactivity (cpm) Round 2 [2, 5] [cpm] | Radioactivity (cpm) Average [2, 5] [cpm]
B1 | 3301 | 30 | 9330 | 9415 | 9672.5 | sialyltransferase activity was observed | – | – | – | – | – | –
B2 | 2865 | 20 | – | – | – | sialyltransferase activity was observed | 5664 | 6724 | 6194 | – | – | –
B3 | 1729 | 25 | – | – | – | sialyltransferase activity was also observed | – | – | – | 8547 | 8481 | 8514
